Test results: patent US20220096649A1 (TALLAC THERAPEUTICS, published 2022)
Numbering of substitutions follows the chain as printed.

T1: SIRP-α mouse BL6 (mouse (BL6), UniProt P97797 32-150, limits assumed)
T1 construct: Soluble analyte in SPR
T1 sequence (looked up): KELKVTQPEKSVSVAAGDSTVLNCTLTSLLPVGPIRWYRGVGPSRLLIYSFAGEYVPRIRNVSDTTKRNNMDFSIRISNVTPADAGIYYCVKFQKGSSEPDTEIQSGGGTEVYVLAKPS

T2: SIRP-α cynomolgus (cynomolgus, UniProt A0A2K5VYQ9 31-148)
T2 construct: Soluble analyte in SPR; also called cynomologous monkey SIRP-α
T2 sequence: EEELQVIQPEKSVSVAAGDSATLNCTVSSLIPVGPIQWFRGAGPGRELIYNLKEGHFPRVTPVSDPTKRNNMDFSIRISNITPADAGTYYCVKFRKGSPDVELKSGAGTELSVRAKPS

B1: Anti-SIRP-α antibody 119, light chain Mut, heavy chain Mut (antibody, V domains shown)
VH: EVQLLESGGGVVQPGGSLRLSCAASGFSFSNFAVTWVRQAPGKGLEWVSTIGSGDTYYADSVKGRFTISRDNSKNTLYLQMNSLRAEDTAVYYCAKDSTVSWSGDFFDYWGQGTLVTVSS
VL: EIVLTQSPATLSVSPGERATLSCRASQNVKNDLAWYQQKPGQAPRLLIYAARIRETGIPARFSGSGSGTEFTLTISSLQSEDFAVYYCQQYYDWPPFTFGGGTKVEIK
notes: Whole antibody
B2: Anti-SIRP-α antibody 119, light chain Mut, heavy chain Mut_V34M (antibody, V domains shown)
VH: B1 VH with V34M
VL: B1 VL
notes: Whole antibody
B3: Anti-SIRP-α antibody 119, light chain wt, heavy chain wt (antibody, V domains shown)
VH: B1 VH with V34M, K43E, Q112L
VL: B1 VL with L21F, K39R, A60E, S76T
notes: Whole antibody (FreeStyle 293-FS, protein A purified)
B4: Hum1/AB21_HC_Mutall (antibody, V domains shown)
VH: EVQLVESGGGVVQPGGSLRLSCAASGFTFSSNAMSWVRQAPGKGLEWVAGISAGGSDTYYPASVKGRFTISRDNSKNTLYLQMNSLRAEDTAVYYCARETWNHLFDYWGQGTLVTVSS
VL: SYELTQPPSVSVSPGQTARITCSGGSYSSYYYAWYQQKPGQAPVTLIYSDDKRPSNIPERFSGSSSGTTVTLTISGVQAEDEADYYCGGYDQSSYTNPFGGGTKLTVL
notes: Whole antibody
B5: Anti-SIRP-α antibody 135, light chain wt, heavy chain Mut_V34M (antibody, V domains shown)
VH: B1 VH with L5V, N31I, F32Y, V34M, T35S, S53A, G54D, S101G
VL: EIVLTQSPATLSVSPGERVTFSCRASQNVRSDIAWYQQKPGQAPRLLIYAASSRDTGIPDRFSGSGSGTDFTLTISSLQSEDFGVYYCQQYYDWPPFTFGGGTKVEIK
notes: Whole antibody
B6: Anti-SIRP-α antibody 135, light chain Mut, heavy chain Mut (antibody, V domains shown)
VH: B1 VH with L5V, N31I, F32Y, T35S, S53A, G54D, S101G
VL: B5 VL with F21L, D60A
notes: Whole antibody

The binders below were run against T3, Human SIRPγ (human, UniProt Q9P1W8 29-147, limits assumed) (assay: SPR, antibody on GLC chip, SIRP as analyte).
T3 construct: Soluble analyte in SPR
T3 sequence (Q9P1W8 29-147 limits assumed): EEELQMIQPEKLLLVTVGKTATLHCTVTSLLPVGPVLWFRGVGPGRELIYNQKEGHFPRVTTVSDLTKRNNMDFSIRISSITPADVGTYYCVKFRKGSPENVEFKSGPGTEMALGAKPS
Method: (§1) The running buffer was PBS pH 7.4 with 0.01% TWEEN-20 (PBST+). All analytes were used at their nominal concentrations as determined by A280 absorbance and using their molar calculated extinction coefficient. Analytes were injected in a “one-shot” kinetic mode as described (see, e.g., Bravman et al., Anal. Biochem. 2006, 358, 281-288).
(§2) For the method using a GLC chip, the analytes were injected and flowed over anti-SIRPα antibodies immobilized (˜1000 RUs) on GLC chips using Proteon Amine Coupling Kit. For the immobilization step, the GLC chip was activated with EDAC/Sulpho-NHS 1:1 (Biorad) diluted 1/100 for 300 s at 25 μL/min. Anti-SIRPα antibodies were diluted to 80 nM concentration in 10 mM sodium acetate buffer pH 4.5 and immobilized to the chip at 30 μL/min for 50 s. Chip was inactivated with ethanolamine for 300 s at 25 μL/min. The analytes (e.g., SIRP-α from different species, SIRP-β, SIRP-γ) were injected in a “one-shot” kinetic mode at nominal concentrations of 100, 33, 11, 3.7, 1.2, and 0 nM. Association times were monitored for 90 s at 100 uL/min, and dissociation times were monitored for 1200 s. The surfaces were regenerated with a 2:1 v/v blend of Pierce IgG elution buffer/4M NaCl.
(§3) Biosensor data were double-referenced by subtracting the interspot data (containing no immobilized protein) from the reaction spot data (immobilized protein) and then subtracting the response of a buffer “blank” analyte injection from that of an analyte injection. Double-referenced data were fit globally to a simple Langmuir model and the KD value was calculated from the ratio of the apparent kinetic rate constants (KD=kd/kₐ).
For B1, the Kd was 0.34 nM. For B2, the Kd was 0.26 nM. Binder B3 has a Kd of 0.27 nM. In the case of B4, the Kd is reported as 0.001 nM. With B5 the Kd was 0.53 nM. Work on B6 yielded a Kd of 0.73 nM.

These binders were tested against T4, Human SIRPβ (human, UniProt O00241 30-148) (assay: SPR, antibody on GLC chip, SIRP as analyte).
T4 construct: Soluble analyte in SPR
T4 sequence (O00241 30-148): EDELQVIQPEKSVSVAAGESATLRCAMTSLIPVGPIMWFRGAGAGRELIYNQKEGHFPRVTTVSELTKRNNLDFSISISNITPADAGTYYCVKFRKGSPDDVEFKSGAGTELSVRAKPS
Method: as §1, §2, §3
B1 showed a Kd of 0.46 nM. Work on B2 yielded a Kd of 0.34 nM. For B3, the Kd was 0.34 nM. B4 was tested, and the Kd was 0.0067 nM. B5 showed a Kd of 0.16 nM. B6 was tested, and the Kd was 0.19 nM.

What follows are binders tested against T1, SIRP-α mouse BL6 (assay: SPR, antibody on GLC chip, SIRP as analyte).
Method: as §1, §2, §3
B1: no binding (tested: 100 nM (highest analyte concentration)). B2: no binding (tested: 100 nM (highest analyte concentration)). B3: no binding (tested: 100 nM (highest analyte concentration)). B4 gave a Kd of 9.5 nM. B5: no binding (tested: 100 nM (highest analyte concentration)). B6: no binding (tested: 100 nM (highest analyte concentration)).

The binders below were run against T2, SIRP-α cynomolgus (assay: SPR, antibody on GLC chip, SIRP as analyte).
Method: as §1, §2, §3
For B1, the Kd was 0.2 nM. For B2, the Kd was 0.12 nM. With B3 the Kd was 0.11 nM. B4 was tested, and the Kd was 0.029 nM. B5 showed a Kd of 0.08 nM. B6 was tested, and the Kd was 0.13 nM.

What follows are binders tested against T5, SIRP-α human v2 (human, UniProt P78324 31-149, limits assumed) (assay: SPR, antibody on GLC chip, SIRP as analyte).
T5 construct: Soluble analyte in SPR
T5 sequence (P78324 other isoform, or with tags, fused parts or gaps limits assumed): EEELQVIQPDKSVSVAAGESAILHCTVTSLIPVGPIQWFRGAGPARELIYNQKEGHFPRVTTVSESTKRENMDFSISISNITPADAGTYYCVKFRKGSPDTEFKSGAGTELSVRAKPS
Method: as §1, §2, §3
For B1, the Kd was 0.088 nM. B2 was tested, and the Kd was 0.069 nM. B3 was tested, and the Kd was 0.068 nM. Work on B4 yielded a Kd of 0.0046 nM. Binder B5 has a Kd of 0.016 nM. For B6, the Kd was 0.018 nM.
